Data as given in US20140161804A1 (AbbVie / Abbott, published 2014).

Biological target: T1, Human IL-17A (human, UniProt Q16552 20-155, limits assumed)
T1 construct: Biotinylated in the ELISAs; purified recombinant protein in SPR; also called hIL17A; hIL-17
Assay: ELISA, captured DVD-Ig, biotin-human IL-17 titrated
Method: The following protocol is used to characterize the binding of TNF/IL-17 DVD-Ig proteins to human TNF and IL-17 by enzyme-linked immunosorbent assay (ELISA). An ELISA plate was coated with 50 μl per well of goat anti mouse IgG-Fc at 2 μg/ml, overnight at 4° C. The plate was washed 3 times with PBS/Tween. 50 μl Mab diluted to 1 μg/ml in PBS/0.1% BSA was added to appropriate wells and incubated for 1 hour at room temperature (RT). The plate was washed 3 times with PBS/Tween. 50 μl of serial diluted biotin-human TNF or IL-17 was added to appropriate wells and incubated for 1 hour at RT. The plate was washed 3 times with PBS/Tween. 50 μl of streptavidin-HRP diluted 1:10,000 in PBS/0.1% BSA was added to appropriate wells and incubated for 1 hour at RT. The plate was washed 3 times with PBS/Tween. 50 μl of TMB was added to appropriate wells and the reaction allowed to proceed for 1 minute. The reaction was stopped with 50 μl/well 2N H₂SO₄ and the absorbance read at 450 nm.

T1 sequence (Q16552 20-155 limits assumed): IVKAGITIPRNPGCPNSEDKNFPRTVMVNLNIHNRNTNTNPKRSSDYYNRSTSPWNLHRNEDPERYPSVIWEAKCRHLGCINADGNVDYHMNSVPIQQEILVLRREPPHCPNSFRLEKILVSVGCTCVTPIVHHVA

B1: hMAK199-10-h10F7-M10.8 DVD-Ig (bispecific antibody, human IgG1, kappa, L234A L235A)
heavy: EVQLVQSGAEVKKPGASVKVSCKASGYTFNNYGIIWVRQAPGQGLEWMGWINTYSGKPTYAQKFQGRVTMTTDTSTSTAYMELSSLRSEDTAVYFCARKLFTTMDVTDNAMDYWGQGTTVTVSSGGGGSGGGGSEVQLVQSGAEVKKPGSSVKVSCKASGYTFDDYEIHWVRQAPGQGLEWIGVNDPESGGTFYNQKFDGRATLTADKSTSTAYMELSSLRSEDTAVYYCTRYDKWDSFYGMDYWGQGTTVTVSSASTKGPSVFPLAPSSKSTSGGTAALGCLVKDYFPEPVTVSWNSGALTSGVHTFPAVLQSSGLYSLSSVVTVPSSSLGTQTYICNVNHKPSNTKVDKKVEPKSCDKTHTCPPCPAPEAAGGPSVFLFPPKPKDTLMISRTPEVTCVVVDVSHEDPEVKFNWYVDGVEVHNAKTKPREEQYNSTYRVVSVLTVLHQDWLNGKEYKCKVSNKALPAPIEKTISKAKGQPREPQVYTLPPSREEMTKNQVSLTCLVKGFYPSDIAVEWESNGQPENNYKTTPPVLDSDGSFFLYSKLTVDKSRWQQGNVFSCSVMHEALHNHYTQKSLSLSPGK
light: DIQMTQSPSSLSASVGDRVTITCRASQDISNFLNWYQQKPGKAPKLLIYYTSRLQSGVPSRFSGSGSGTDYTLTISSLQPEDFATYFCQQGNTQPPTFGQGTKLEIKRGGSGGGGSGDIQMTQSPSSLSASVGDRVTITCSASSGSISYIDWFQQKPGKAPKRLIYATFELASGVPSRFSGSGSGTDFTLTISSLQPEDFATYYCHQLGSYPDTFGQGTKLEIKRTVAAPSVFIFPPSDEQLKSGTASVVCLLNNFYPREAKVQWKVDNALQSGNSQESVTEQDSKDSTYSLSSTLTLSKADYEKHKVYACEVTHQGLSSPVTKSFNRGEC
notes: DVD-Ig; IgG1 234,235 mut, kappa; GS10 linkers; also called HMAK199-10-GS10-H10F7-M10 DVD
In the case of B1, the EC50 is reported as 0.079 nM.

B2: hMAK199-10-h10F7-M11.8 DVD-Ig (bispecific antibody, human IgG1, kappa, L234A L235A)
heavy: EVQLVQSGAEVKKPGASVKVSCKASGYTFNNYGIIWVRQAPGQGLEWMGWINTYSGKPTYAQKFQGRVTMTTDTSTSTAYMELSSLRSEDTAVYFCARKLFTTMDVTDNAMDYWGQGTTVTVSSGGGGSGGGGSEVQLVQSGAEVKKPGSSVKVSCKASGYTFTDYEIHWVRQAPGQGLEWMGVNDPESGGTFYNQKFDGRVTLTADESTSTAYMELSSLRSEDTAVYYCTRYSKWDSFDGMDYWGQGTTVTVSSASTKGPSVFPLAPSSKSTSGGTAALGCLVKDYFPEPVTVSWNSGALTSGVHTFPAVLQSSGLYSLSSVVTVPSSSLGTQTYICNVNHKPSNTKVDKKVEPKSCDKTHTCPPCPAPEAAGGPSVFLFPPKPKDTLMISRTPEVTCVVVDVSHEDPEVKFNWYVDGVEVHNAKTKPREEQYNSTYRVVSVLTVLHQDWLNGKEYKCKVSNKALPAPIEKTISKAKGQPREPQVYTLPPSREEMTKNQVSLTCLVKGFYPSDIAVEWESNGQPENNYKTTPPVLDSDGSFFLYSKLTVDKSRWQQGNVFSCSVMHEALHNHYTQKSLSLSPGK
light: DIQMTQSPSSLSASVGDRVTITCRASQDISNFLNWYQQKPGKAPKLLIYYTSRLQSGVPSRFSGSGSGTDYTLTISSLQPEDFATYFCQQGNTQPPTFGQGTKLEIKRGGSGGGGSGDIQMTQSPSSLSASVGDRVTITCRASSGIISYIDWFQQKPGKAPKRLIYATFDLASGVPSRFSGSGSGTDYTLTISSLQPEDFATYYCRQVGSYPETFGQGTKLEIKRTVAAPSVFIFPPSDEQLKSGTASVVCLLNNFYPREAKVQWKVDNALQSGNSQESVTEQDSKDSTYSLSSTLTLSKADYEKHKVYACEVTHQGLSSPVTKSFNRGEC
notes: DVD-Ig; IgG1 234,235 mut, kappa; GS10 linkers; also called HMAK199-10-GS10-H10F7-M11 DVD
Work on B2 yielded an EC50 of 0.133 nM.

B3: hMAK195-21-h10F7-A11.8 DVD-Ig (bispecific antibody, human IgG1, kappa, L234A L235A)
heavy: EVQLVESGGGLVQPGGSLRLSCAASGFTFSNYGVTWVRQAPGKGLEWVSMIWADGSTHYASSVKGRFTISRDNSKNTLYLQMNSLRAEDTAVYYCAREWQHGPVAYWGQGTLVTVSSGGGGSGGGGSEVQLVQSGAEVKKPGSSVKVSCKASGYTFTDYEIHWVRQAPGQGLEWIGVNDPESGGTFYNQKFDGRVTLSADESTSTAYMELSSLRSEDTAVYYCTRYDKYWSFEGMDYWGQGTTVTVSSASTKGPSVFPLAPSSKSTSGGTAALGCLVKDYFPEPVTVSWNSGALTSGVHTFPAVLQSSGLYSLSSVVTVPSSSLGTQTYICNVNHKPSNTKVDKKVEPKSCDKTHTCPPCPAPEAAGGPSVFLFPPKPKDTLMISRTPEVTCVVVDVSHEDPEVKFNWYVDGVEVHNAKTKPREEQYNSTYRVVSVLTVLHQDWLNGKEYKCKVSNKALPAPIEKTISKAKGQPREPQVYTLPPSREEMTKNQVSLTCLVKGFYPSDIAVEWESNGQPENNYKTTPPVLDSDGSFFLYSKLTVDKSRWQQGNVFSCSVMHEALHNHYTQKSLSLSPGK
light: DIQMTQSPSSLSASVGDRVTITCRASQLVSSAVAWYQQKPGKAPKLLIYWASARHTGVPSRFSGSGSGTDFTLTISSLQPEDFATYYCQQHYKTPFTFGQGTKLEIKRGGSGGGGSGDIQMTQSPSSLSASVGDRVTITCRASSGIISYIDWFQQKPGKAPKRLIYATFDLASGVPSRFSGSGSGTDYTLTISSLQPEDFATYYCRQVGSYPETFGQGTKLEIKRTVAAPSVFIFPPSDEQLKSGTASVVCLLNNFYPREAKVQWKVDNALQSGNSQESVTEQDSKDSTYSLSSTLTLSKADYEKHKVYACEVTHQGLSSPVTKSFNRGEC
notes: DVD-Ig; IgG1 234,235 mut, kappa; GS10 linkers; light chain shared with the M11 DVD-Ig; also called hMAK195-21-GS10-A11 DVD
Binder B3 has an EC50 of 0.3 nM.

B4: hMAK195-21-h10F7-B13.8 DVD-Ig (bispecific antibody, human IgG1, kappa, L234A L235A)
heavy: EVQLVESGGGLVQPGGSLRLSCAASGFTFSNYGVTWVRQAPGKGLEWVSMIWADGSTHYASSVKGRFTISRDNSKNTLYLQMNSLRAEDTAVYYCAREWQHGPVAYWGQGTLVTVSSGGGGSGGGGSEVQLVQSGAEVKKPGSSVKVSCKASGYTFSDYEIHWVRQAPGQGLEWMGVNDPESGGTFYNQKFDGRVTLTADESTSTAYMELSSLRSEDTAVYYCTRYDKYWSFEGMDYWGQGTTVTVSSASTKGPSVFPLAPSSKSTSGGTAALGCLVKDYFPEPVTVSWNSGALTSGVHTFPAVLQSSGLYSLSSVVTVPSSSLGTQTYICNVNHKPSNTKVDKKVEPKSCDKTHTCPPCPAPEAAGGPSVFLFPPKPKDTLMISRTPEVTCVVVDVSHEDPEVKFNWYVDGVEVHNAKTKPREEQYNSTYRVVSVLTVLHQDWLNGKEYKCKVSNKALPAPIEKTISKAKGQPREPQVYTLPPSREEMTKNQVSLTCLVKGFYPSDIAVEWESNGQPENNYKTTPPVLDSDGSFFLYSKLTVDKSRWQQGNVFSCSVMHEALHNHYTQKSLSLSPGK
light: DIQMTQSPSSLSASVGDRVTITCRASQLVSSAVAWYQQKPGKAPKLLIYWASARHTGVPSRFSGSGSGTDFTLTISSLQPEDFATYYCQQHYKTPFTFGQGTKLEIKRGGSGGGGSGDIQMTQSPSSLSASVGDRVTITCRASSGIISYIDWFQQKPGKAPKRLIYATFDLASGVPSRFSGSGSGTDYTLTISSLQPEDFATYYCRQVGSYPETFGQGTKLEIKRTVAAPSVFIFPPSDEQLKSGTASVVCLLNNFYPREAKVQWKVDNALQSGNSQESVTEQDSKDSTYSLSSTLTLSKADYEKHKVYACEVTHQGLSSPVTKSFNRGEC
notes: DVD-Ig; IgG1 234,235 mut, kappa; GS10 linkers; light chain shared with the M11 DVD-Ig; also called hMAK195-21-GS10-B13 DVD
In the case of B4, the EC50 is reported as 0.2 nM.

B5: hMAK195-21-h10F7-B20.8 DVD-Ig (bispecific antibody, human IgG1, kappa, L234A L235A)
heavy: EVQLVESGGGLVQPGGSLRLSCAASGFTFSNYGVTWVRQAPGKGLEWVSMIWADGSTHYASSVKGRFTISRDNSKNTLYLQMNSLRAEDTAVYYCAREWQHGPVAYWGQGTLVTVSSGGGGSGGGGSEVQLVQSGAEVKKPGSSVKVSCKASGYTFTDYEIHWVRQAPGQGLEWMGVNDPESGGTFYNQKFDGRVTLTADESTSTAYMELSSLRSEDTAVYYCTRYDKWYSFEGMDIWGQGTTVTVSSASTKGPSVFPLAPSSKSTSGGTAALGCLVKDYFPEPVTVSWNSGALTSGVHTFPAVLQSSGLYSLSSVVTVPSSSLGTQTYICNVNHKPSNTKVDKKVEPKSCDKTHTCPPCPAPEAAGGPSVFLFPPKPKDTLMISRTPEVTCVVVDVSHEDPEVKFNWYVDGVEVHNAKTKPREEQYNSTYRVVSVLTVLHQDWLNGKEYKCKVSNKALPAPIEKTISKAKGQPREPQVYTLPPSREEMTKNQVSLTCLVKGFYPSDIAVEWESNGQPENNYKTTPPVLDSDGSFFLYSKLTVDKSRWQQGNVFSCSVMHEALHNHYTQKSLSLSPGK
light: DIQMTQSPSSLSASVGDRVTITCRASQLVSSAVAWYQQKPGKAPKLLIYWASARHTGVPSRFSGSGSGTDFTLTISSLQPEDFATYYCQQHYKTPFTFGQGTKLEIKRGGSGGGGSGDIQMTQSPSSLSASVGDRVTITCRASSGIISYIDWFQQKPGKAPKRLIYATFDLASGVPSRFSGSGSGTDYTLTISSLQPEDFATYYCRQVGSYPETFGQGTKLEIKRTVAAPSVFIFPPSDEQLKSGTASVVCLLNNFYPREAKVQWKVDNALQSGNSQESVTEQDSKDSTYSLSSTLTLSKADYEKHKVYACEVTHQGLSSPVTKSFNRGEC
notes: DVD-Ig; IgG1 234,235 mut, kappa; GS10 linkers; light chain shared with the M11 DVD-Ig; also called hMAK195-21-GS10-B20 DVD
For B5, the EC50 was 0.242 nM.

B6: hMAK195-21-h10F7-M10.8 DVD-Ig (bispecific antibody, human IgG1, kappa, L234A L235A)
heavy: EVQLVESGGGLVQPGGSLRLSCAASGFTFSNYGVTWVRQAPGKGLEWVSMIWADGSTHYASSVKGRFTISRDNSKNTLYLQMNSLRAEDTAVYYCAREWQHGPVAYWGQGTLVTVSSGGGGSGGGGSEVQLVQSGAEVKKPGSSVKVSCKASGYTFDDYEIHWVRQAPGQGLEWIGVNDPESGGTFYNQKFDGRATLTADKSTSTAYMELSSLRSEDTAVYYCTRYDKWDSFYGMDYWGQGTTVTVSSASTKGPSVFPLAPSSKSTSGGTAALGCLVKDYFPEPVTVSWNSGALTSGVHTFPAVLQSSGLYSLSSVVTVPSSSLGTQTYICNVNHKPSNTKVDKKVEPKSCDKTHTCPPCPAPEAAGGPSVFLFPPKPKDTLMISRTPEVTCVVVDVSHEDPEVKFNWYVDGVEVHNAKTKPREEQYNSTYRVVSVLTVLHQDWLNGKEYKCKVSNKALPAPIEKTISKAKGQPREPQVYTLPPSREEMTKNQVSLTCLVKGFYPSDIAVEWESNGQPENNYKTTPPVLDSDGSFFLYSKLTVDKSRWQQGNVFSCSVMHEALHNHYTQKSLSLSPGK
light: DIQMTQSPSSLSASVGDRVTITCRASQLVSSAVAWYQQKPGKAPKLLIYWASARHTGVPSRFSGSGSGTDFTLTISSLQPEDFATYYCQQHYKTPFTFGQGTKLEIKRGGSGGGGSGDIQMTQSPSSLSASVGDRVTITCSASSGSISYIDWFQQKPGKAPKRLIYATFELASGVPSRFSGSGSGTDFTLTISSLQPEDFATYYCHQLGSYPDTFGQGTKLEIKRTVAAPSVFIFPPSDEQLKSGTASVVCLLNNFYPREAKVQWKVDNALQSGNSQESVTEQDSKDSTYSLSSTLTLSKADYEKHKVYACEVTHQGLSSPVTKSFNRGEC
notes: DVD-Ig; IgG1 234,235 mut, kappa; GS10 linkers; also called hMAK195-21-GS10-M10 DVD
Work on B6 yielded an EC50 of 0.1 nM.

B7: hMAK195-24-h10F7-M10.8 DVD-Ig (bispecific antibody, human IgG1, kappa, L234A L235A)
heavy: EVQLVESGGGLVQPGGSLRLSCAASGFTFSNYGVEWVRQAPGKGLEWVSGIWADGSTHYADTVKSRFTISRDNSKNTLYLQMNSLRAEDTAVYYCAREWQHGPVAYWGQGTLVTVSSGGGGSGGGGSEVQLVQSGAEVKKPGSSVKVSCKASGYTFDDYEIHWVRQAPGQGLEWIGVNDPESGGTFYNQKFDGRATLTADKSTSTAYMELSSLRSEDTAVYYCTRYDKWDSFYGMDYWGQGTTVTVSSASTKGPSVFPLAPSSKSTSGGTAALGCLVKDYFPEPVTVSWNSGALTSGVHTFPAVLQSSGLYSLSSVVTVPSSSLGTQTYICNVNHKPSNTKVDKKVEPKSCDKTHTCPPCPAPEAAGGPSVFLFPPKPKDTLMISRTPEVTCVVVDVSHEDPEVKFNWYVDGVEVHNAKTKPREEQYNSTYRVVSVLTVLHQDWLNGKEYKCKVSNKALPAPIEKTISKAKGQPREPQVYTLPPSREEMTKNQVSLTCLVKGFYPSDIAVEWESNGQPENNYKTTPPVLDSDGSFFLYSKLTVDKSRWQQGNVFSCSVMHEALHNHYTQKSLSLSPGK
light: DIQMTQSPSSLSASVGDRVTITCKASQLVSSAVAWYQQKPGKAPKLLIYWASTLHTGVPSRFSGSGSGTDFTLTISSLQPEDFATYYCQQHYRTPFTFGQGTKLEIKRGGSGGGGSGDIQMTQSPSSLSASVGDRVTITCSASSGSISYIDWFQQKPGKAPKRLIYATFELASGVPSRFSGSGSGTDFTLTISSLQPEDFATYYCHQLGSYPDTFGQGTKLEIKRTVAAPSVFIFPPSDEQLKSGTASVVCLLNNFYPREAKVQWKVDNALQSGNSQESVTEQDSKDSTYSLSSTLTLSKADYEKHKVYACEVTHQGLSSPVTKSFNRGEC
notes: DVD-Ig; IgG1 234,235 mut, kappa; GS10 linkers; also called hMAK195-24-GS10-M10 DVD
In the case of B7, the EC50 is reported as 0.1 nM.
